Reference: paper doi:10.1101/2021.05.19.444900 (bioRxiv, 2021)

Biological target: the molecule itself
Assay: SEC

Row | Protein | binding result
1 | recombinant NAP1L4 (aa 2-375 of isoform 1) with N-terminal His-tag (natural protein) ADHSFSDGVPSDSVEAAKNASNTEKLTDQVMQNPRVLAALQERLDNVPHTPSSYIETLPKAVKRRINALKQLQVRCAHIEAKFYEEVHDLERKYAALYQPLFDKRREFITGDVEPTDAESEWHSENEEEEKLAGDMKSKVVVTEKAAATAEEPDPKGIPEFWFTIFRNVDMLSELVQEYDEPILKHLQDIKVKFSDPGQPMSFVLEFHFEPNDYFTNSVLTKTYKMKSEPDKADPFSFEGPEIVDCDGCTIDWKKGKNVTVKTIKKKQKHKGRGTVRTITKQVPNESFFNFFNPLKASGDGESLDEDSEFTLASDFEIGHFFRERIVPRAVLYFTGEAIEDDDNFEEGEEGEEEELEGDEEGEDEDDAEINPKV | binds
2 | recombinant NAP1L1 (aa 69-391 of isoform 1) with N-terminal His-tag (domain or fragment) SLPRVVKRRVNALKNLQVKCAQIEAKFYEEVHDLERKYAVLYQPLFDKRFEIINAIYEPTEEECEWKPDEEDEISEELKEKAKIEDEKKDEEKEDPKGIPEFWLTVFKNVDLLSDMVQEHDEPILKHLKDIKVKFSDAGQPMSFVLEFHFEPNEYFTNEVLTKTYRMRSEPDDSDPFSFDGPEIMGCTGCQIDWKKGKNVTLKTIKKKQKHKGRGTVRTVTKTVSNDSFFNFFAPPEVPESGDLDDDAEAILAADFEIGHFLRERIIPRSVLYFTGEAIEDDDDDYDEEGEEADEEGEEEGDEENDPDYDPKKDQNPAECKQQ | binds
